Assay [1] has as its target M2 protein of influenza A/Wisconsin/67/05 (H3N2), on inactivated whole virions (Influenza A virus A/Wisconsin/67/2005 (H3N2)). The assay can be described thus: ELISA, positive control antibody on inactivated whole virions.
The target in assay [2] is 23 amino acid synthetic M2e peptide of A/Fort Worth/1/50 (influenza A virus A/Fort Worth/1/50 (H1N1)). As to the kind of experiment: ELISA on the 23mer M2e peptide (FIG. 14b). In general terms: ELISA stands for enzyme-linked immunosorbent assay.

As a reminder, the EC50 is the concentration at which the effect is half-maximal. A higher EC50 goes with a less potent agent.

Sequence of TCN-032 (8I10) (antibody) (VH): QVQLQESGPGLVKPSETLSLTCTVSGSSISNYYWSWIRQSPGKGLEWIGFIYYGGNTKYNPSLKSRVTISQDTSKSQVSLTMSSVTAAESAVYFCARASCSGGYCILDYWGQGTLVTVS
Sequence of TCN-032 (8I10) (antibody) (VL): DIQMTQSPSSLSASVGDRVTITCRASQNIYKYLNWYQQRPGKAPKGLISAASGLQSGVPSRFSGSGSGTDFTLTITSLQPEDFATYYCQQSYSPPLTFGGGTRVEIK

As to TCN-032 (8I10) (antibody), the OD450 in assay [1] was 3.62 OD450.

In turn, “chimeric mouse V-region/human IgG1 kappa 14C2 antibody” gave an EC50 in assay [2] of 0.01 µg/mL.

The values are drawn from US20120207760A1.
